Laboratory results: patent publication US20230338564A1, “NEODEGRADER CONJUGATES” (Orum Therapeutics, Inc., priority 2020, published 2023)

System: RD-ES cell line
Assay: In vitro antiproliferation assay, General Procedure 2 (CCK-8)
Assay type: cell-based
Conditions: Ewing’s sarcoma
Excerpt: Cell Culture: Cell lines were obtained from the American Type Culture Collection (ATCC, Manassas, VA, USA) or Deutsche Sammlung von Mikroorganismen und Zellkulturen (DSMZ, Braunschweig, Germany) and maintained according to the culturing conditions specified by ATCC or DSMZ. Cells were thawed out and maintained in culture for at least two passages before proceeding with experimental conditions.
Cytotoxicity assays: For adherent cell lines, the cells were dissociated with enzyme-free PBS-based cell dissociation buffer (Gibco, USA) and plated on tissue culture treated 96-well flat bottom polystyrene plates (Costar, Corning, USA) at appropriate cell densities depending on doubling time of the cells. 18 hours after plating, cells were treated with test articles at appropriate concentrations starting at 100 nM and diluted in 4-fold serial dilutions. For suspension cell lines, the cells were seeded on the same day of treatment and cells were treated as described above. Adherent cells were treated for 5 days and suspension cells were treated for 3 days. Cell proliferation was assessed using the Cell Counting Kit-8 (CCK-8, Dojindo Laboratories, Japan) and measurements were obtained using the Promega GloMax Discover plate reader (Promega, USA). Data were analyzed using GraphPad Prism software (GraphPad Software, San Diego, CA). All data points were obtained from technical triplicates and the experiments were validated using three biological replicates.

B1: Ontuxizumab-Compound (Ia) (conjugate, chains of the INN, looked up)
VH: QVQLQESGPGLVRPSQTLSLTCTASGYTFTDYVIHWVKQPPGRGLEWIGYINPYDDDTTYNQKFKGRVTMLVDTSSNTAYLRLSSVTAEDTAVYYCARRGNSYDGYFDYSMDYWGSGTPVTVSS
VL: DIQMTQSPSSLSASVGDRVTITCRASQNVGTAVAWLQQTPGKAPKLLIYSASNRYTGVPSRFSGSGSGTDYTFTISSLQPEDIATYYCQQYTNYPMYTFGQGTKVQIK
modifications: conjugated to Compound (Ia)
For B1, the IC50 was 27.3 pM.
